From PMC12809495, “Potential 14-3-3 binding sites in sirtuins reveal extended phosphosite-recognition modes” (Acta Crystallographica Section F: Structural Biology …, 2026)
“And” between values parts separate entries of the source, which are not always exact repeats. Equal values may be shown once. Where no end group is shown, it is not given here. [ ]: non-standard residue; d: D form. pS = N[C@@H](COP(=O)(O)O)C(=O)O

B1: 14-3-3σ-ΔC (C-terminally truncated human 14-3-3σ) (domain or fragment, UniProt P31947 1-231, looked up)
chain: MERASLIQKAKLAEQAERYEDMAAFMKGAVEKGEELSCEERNLLSVAYKNVVGGQRAAWRVLSSIEQKSNEEGSEEKGPEVREYREKVETELQGVCDTVLGLLDSHLIKEAGDAESRVFYLKMKGDYYRYLAEVATGDDKKRIIDSARSAYQEAMDISKKEMPPTNPIRLGLALNFSVFHYEIANSPEEAISLAKTTFDEAMADLHTLSEDSYKDSTLIMQLLRDNLTLWT
notes: 14-3-3σ, human, C-terminally truncated gene fragment (ΔC) cloned into pPROEX-HTb; the structures show 'all 231 residues of the 14-3-3 monomer'; No removal of the His6 tag is described; The dimer in the crystals is formed with a symmetry mate; also called 14-3-3-ΔC; source: E. coli BL21 Rosetta (DE3), purified (nickel-nitrilotriacetic acid column)

Assays:
14-3-3 theta = target: T1, 14-3-3 theta (Homo sapiens); test: MST
T1 chain: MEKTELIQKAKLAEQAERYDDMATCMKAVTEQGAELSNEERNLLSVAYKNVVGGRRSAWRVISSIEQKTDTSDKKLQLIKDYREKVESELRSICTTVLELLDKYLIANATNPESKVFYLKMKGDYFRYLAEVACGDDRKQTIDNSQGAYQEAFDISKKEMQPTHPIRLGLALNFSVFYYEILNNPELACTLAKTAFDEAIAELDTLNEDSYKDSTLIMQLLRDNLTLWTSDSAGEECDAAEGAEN

[1] = target: T2, 14-3-3σ-ΔC (C-terminally truncated human 14-3-3σ) (human, UniProt P31947 1-231); test: MST
T2 chain: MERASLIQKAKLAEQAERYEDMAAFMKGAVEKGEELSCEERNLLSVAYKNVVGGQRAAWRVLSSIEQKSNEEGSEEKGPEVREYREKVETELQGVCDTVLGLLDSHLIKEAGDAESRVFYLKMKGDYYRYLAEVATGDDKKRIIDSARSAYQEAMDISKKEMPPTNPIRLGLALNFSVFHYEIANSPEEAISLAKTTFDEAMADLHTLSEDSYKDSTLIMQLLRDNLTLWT

14-3-3 epsilon = target: T3, 14-3-3 epsilon (Homo sapiens); test: MST
T3 chain: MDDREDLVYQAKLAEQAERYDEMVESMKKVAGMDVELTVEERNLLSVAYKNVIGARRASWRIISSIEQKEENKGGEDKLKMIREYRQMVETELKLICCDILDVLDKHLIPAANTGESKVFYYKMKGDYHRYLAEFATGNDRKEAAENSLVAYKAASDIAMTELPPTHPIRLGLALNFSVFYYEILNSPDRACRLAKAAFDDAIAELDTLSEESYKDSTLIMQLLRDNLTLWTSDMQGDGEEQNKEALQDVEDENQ

[2] = target: 14-3-3σ-ΔC (C-terminally truncated human 14-3-3σ) (human) (UniProt P31947); test: MST; label-free, intrinsic fluorescence of the 14-3-3 protein; 0.6 µM 14-3-3 protein titrated with peptide; 25 mM MES pH 6.5, 5 mM MgCl2, 5 mM CaCl2; 25°C
[3] = target: 14-3-3σ-ΔC (C-terminally truncated human 14-3-3σ) (human) (UniProt P31947); test: ITC; 150 µM 14-3-3σ-ΔC in the cell, fourfold-concentrated phosphopeptide in the needle; 2 µl injections; 25°C; one-site fit; apparent
[4] = target: the molecule itself; test: crystal structure; protein and peptide mixed 1:1.5; 0.1 M HEPES-NaOH pH 7.5, 0.2 M CaCl2, 24-28% PEG 400, 5% glycerol, 1 mM TCEP, 4°C
[5] = target: B1; test: MST; label-free, intrinsic fluorescence of the 14-3-3 protein; 0.6 µM 14-3-3 protein titrated with peptide; 25 mM MES pH 6.5, 5 mM MgCl2, 5 mM CaCl2; 25°C; details: both partners purified

GRRSI[pS]FSVGA (also: phosphoserine at 103 (place in chain not given here)) [Sirt3^pS103 phospho-endecamer peptide]
Kd (14-3-3 theta): 52 µM
Kd [1]: 10 µM
Kd (14-3-3 epsilon): > 267 µM
Kd [2]: 1.5 µM and 2.1 µM

VLSSS[pS]CGSNS (also: phosphoserine at 670 (place in chain not given here)) [Sirt1^pS670 phospho-endecamer peptide]
Kd [3]: 5 µM
Kd (14-3-3 theta): 93 µM
Kd (14-3-3 epsilon): > 183 µM

B1
binding result [4]: binds

B2: Sirt3^S103 nonphosphorylated peptide (peptide)
chain: GRRSISFSVGA
modifications: none (nonphosphorylated Ser103). Limits are not given; they are taken from the 11-residue peptide in PDB 8ANC entity 2 (GRRSISFSVGA, S103 at position 6), assuming the same endecamer …
Kd [5]: ~881 µM
